Measurements from US12723106 (dated 2026).

T1: human IL4 (human, UniProt P05112)
T1 chain: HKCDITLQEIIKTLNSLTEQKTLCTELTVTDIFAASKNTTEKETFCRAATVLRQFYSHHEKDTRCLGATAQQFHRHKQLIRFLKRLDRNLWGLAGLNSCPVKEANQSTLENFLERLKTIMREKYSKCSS

B1: sLC-Tandem-(anti-IL4xanti-IL13)-ΔPCL1-huIgG1, IL4 arm (antibody)
chain 1: not shown
chain 2: DIQMTQSPASLSVSVGDTITLTCHASQNIDVWLSWFQQKPGNIPKLLIYKASNLHTGVPSRFSGSGSGTGFTLTISSLQPEDIATYYCQQAHSYPFTFGGGTKLEIKRTVAAPSVFIFPPSDEQLKSGTASVVCLLNNFYPREAKVQWKVDNALQSGNSQESVTEQDSKDSTYSLSSTLTLSKADYEKHKVYACEVTHQGLSSPVTKSFNRGEC
B2: Tandem-(anti-IL4xanti-IL13)-huIgG1, IL4 arm (antibody)
chain 1: not shown
chain 2: B1 chain 2
B3: sLC-Tandem-(anti-IL4xanti-IL13)-His8-PCL1-huIgG1 with Furin-KDEL, IL4 arm (antibody)
chain 1: not shown
chain 2: B1 chain 2
B4: sLC-Tandem-(anti-IL4xanti-IL13)-PCL1-huIgG1, IL4 arm (antibody)
chain 1: not shown
chain 2: B1 chain 2
B5: sLC-Tandem-(anti-IL4xanti-IL13)-His8-PCL1-huIgG1 with Furin, IL4 arm (antibody)
chain 1: not shown
chain 2: B1 chain 2
B6: sLC-Tandem-(anti-IL4xanti-IL13)-PCL2-huIgG1, IL4 arm (antibody)
chain 1: not shown
chain 2: B1 chain 2

Molecular target: T1, human IL4
Experiment: SPR

Question: Which Kd does the source give for B1 here?
Answer: The Kd was 2.29 pM.

Question: For B2, which Kd is on record?
Answer: The Kd was 2.32 pM.

Question: With B3 as the binder, how does the Kd read?
Answer: The Kd was 1.86 pM.

Question: With B4 as the binder, how does the Kd read?
Answer: Its Kd is 0.901 pM.

Question: For B5, which Kd is on record?
Answer: The Kd was 1.53 pM.

Question: How did the Kd turn out when B6 was run?
Answer: Its Kd is 1.05 pM.

Molecular target: T1, human IL4
Experiment: SPR
Remark: another data set of the same source

Question: For B1, which Kd is on record?
Answer: The Kd was 2.75 pM.

Question: How did the Kd turn out when B4 was run?
Answer: Its Kd is 1.42 pM.

Question: With B6 as the binder, how does the Kd read?
Answer: The Kd was 1.33 pM.
